Assay: Quenching of peptide tryptophan fluorescence by ferric ions (stoichiometry, apparent Kd)
Assay type: binding
Details: 10 mM sodium acetate pH 4.0, 100 mM NaCl, 0.005% Tween 20; mean ± S.E.; read-out: Kd (μM), apparent dissociation constant for ferric ions
Method: The tryptophan fluorescence of peptide solutions was measured in 3 mL quartz cuvettes thermostated at […], with a Spex Fluorolog-2 spectrofluorimeter (Spex Industries, Edison, N.J.), with the excitation and emission wavelengths set at 290 and 345 nm, respectively. The quenching of tryptophan fluorescence induced by the binding of metal ions was used to calculate the fraction of binding sites occupied, fa: fa=(yf−y)/(yf−yb) where y is the fluorescence signal at a given concentration of metal ions and yb and yf are the signals when the binding sites are fully occupied and unoccupied, respectively (Winzor et al, 1995). […]
The tryptophan fluorescence of progastrin6-80, glycine-extended gastrin17 and related peptides was measured in the presence of increasing concentrations of ferric ions in 10 mM sodium acetate, pH 4.0, 100 mM NaCl, 0.005% Tween 20. […]
The tryptophan fluorescence of amidated gastrin17 and related peptides was measured in the presence of increasing concentrations of ferric ions at pH 4.0 (8). […]

Kd: 2.15 ± 0.14 µM
B1: Progastrin: recombinant human progastrin6-80 (protein, listed as Homo sapiens)
chain: SQQPDAPLGTGANRDLELPWLEQQGPASHHRRQLGPQGPPHLVADPSKKQGPWLEEEEEAYGWMDFGRRSAEDEN

— patent US20070031511A1, “Method of treatment” (priority 2003, published 2007)
